Columns and labels:
[1] = biological target: T1, 6HisPrpR (PrpRMt) (Mycobacterium tuberculosis H37Rv) (UniProt O06581); test: EMSA; conditions: 50 mM Tris-HCl pH 7.5, 50 mM KCl, 10 mM MgCl2, 10% glycerol, 0.5 mM EDTA; […], SA chip)
T1 sequence: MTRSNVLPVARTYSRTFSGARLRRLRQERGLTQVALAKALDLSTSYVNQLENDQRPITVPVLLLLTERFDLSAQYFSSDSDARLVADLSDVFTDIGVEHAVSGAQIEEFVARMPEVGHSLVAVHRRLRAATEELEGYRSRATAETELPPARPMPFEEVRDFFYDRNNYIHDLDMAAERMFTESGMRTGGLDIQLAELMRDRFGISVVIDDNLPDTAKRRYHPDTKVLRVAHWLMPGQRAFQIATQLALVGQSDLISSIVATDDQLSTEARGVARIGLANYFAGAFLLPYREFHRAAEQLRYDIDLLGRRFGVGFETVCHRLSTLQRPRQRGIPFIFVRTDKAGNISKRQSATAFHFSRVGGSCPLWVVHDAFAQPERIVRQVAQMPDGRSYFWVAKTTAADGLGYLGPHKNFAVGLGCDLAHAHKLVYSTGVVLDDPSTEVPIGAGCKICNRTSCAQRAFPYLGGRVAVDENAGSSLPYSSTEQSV

[2] = biological target: T1, 6HisPrpR (PrpRMt) (Mycobacterium tuberculosis H37Rv); test: SPR; conditions: 50 mM Tris-HCl pH 7.5, 50 mM KCl, 10 mM MgCl2, 10% glycerol, 0.5 mM EDTA; […], SA chip)
6HisRamB [3] = biological target: T2, 6HisRamB (UniProt P9WMI1); test: SPR; conditions: 50 mM Tris-HCl pH 7.5, 50 mM KCl, 10 mM MgCl2, 10% glycerol, 0.5 mM EDTA; […], SA chip)
T2 sequence: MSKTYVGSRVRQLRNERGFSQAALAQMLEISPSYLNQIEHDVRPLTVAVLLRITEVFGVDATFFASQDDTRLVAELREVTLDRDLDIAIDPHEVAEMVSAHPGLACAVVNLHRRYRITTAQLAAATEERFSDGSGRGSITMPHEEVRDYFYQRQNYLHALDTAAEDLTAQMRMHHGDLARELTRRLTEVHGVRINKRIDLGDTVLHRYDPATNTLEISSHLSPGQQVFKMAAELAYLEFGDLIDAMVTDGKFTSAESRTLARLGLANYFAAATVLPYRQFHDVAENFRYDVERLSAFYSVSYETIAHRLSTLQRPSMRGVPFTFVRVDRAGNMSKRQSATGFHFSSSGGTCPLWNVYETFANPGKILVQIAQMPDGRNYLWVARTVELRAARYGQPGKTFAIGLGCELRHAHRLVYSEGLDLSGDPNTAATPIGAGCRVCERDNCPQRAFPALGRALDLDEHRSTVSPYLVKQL

[4] = test system: 6HisPrpR (PrpRMt) (Mycobacterium tuberculosis H37Rv); test: SPR; conditions: 50 mM Tris-HCl pH 7.5, 50 mM KCl, 10 mM MgCl2, 10% glycerol, 0.5 mM EDTA; 25 C, 30 min (EMSA, footprinting); same buffer for SPR (BIAcore T3000, SA chip)
6HisRamB [5] = test: SPR; conditions: 50 mM Tris-HCl pH 7.5, 50 mM KCl, 10 mM MgCl2, 10% glycerol, 0.5 mM EDTA; […], SA chip)

Q: What does the source list for “GGCGGTCGAACACGTCGGGGTGACCGTCGGGCACGGGCATCAATTTTTTGTCGAGGCTCACGGCGTTCTCCCCATTTCCTCCTCGCGTGTACCTCAGGCTCACCCTTGAGTCCCGGTGCGAATCATGCCAACGCCGTGGCGGAAACACCAATCGCAGCACGCTTGCTAACTCTGCGAATGGCGTCTTCACAACACCCGGTACGCTCGGTTGGGTGTCCAAGACCTACGTCGGCTCGCGGGTCCGCCAACTGCCC (double strand) [pramB]”?
A: binding [1]: binds; Kd [2]: 32 nM; Kd (6HisRamB [3]): 328 nM

Q: Which results are given for “GGGTGCCTCCGATCCGAGCTCGGACTCGGCAAGTACCGCCACTTTCATGACCGCGCGAGGTGGTGCGTCGGGAGCGCTACTGGTGTTCGTGTTCGCTGACGACATGTAGCGGGCAGCTCCTCTTCCGGGCGGTTCGTTTGCAAACGATACGCATGCTGTGTGTAGATTTCCCACCTCCCGACAGCCGAGACGACGACATGTGCTGGAGTTATTGCCTTCGACTTGACGGTTGATCGTTAGCACC (double strand) [pkstR]”?
A: binding [1]: binds; Kd [2]: 25 nM

Q: “GGTGCTCCGCGCTCTTCGGGGTGCCGACGACAGACATAGACAACTCCTTAACGGTCTTTCATTGCCGAAAACGCTGACGCCCTACCGTCGTCCAGGCGGTGTCAACGGCGCAGCTTCACTGGTGTGCTAACTCGACCATGGCACAGCGTGTCAACGCTGGTCCACCCATTTCACTTGCGAATTTCGGCAACGGCCTGCGGACTTTTTGCAAATTTTGCGAAGTCGCCCAAAAACTGAACCGTTTCAGAAGCTACCCGCCAGTAACGACAAATCCGCAGGTAAACCCCC (double strand) [picl1]” was tested. Which binding [1] did it give?
A: Its binding is “binds”.

Q: How did the Kd [4] turn out when pkstR was run?
A: The Kd was 25 nM.

Q: Which Kd (6HisRamB [5]) does the source give for pramB here?
A: The Kd was 328 nM.

Q: And the Kd [4]?
A: The Kd was 32 nM.
